Measured values reported in the supplement of paper PMC10567573.

B1: DLC1 (parent)
chain: HVTHWMGQPFNSDDRNTACHHGLV
B2: FADS1 (parent)
chain: LNFQIEHHLFPTMPRHNYHKVAPL

Variants of: B1
Assay: protein stability index of a GFP-peptide fusion (GPS, HEK-293T) (PSI 1-6); higher = more stable
Conditions: c terminus: a fixed tail appended
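Note: lentivirally expressed fusions sorted by FACS into six bins by GFP to DsRed ratio, PSI derived from sequencing read proportions per bin multiplied by bin number.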

Protein stability index: each site, then its substitutions
T17: V 2.1, W 1.82, Y 1.86, S 2.36
C19: D 2.68, N 2.43, A 2.5, G 1.96, H 2.13, T 2.61, Q 2.61, M 2.31, P 2.43, R 2.4, L 2.02, I 2.4, V 2.04, Y 1.8, E 2.92, W 1.48, K 2.2, F 1.25, S 2.41
V24: G 1.92, N 2.05, R 2.22, Y 1.69, L 2.35, S 2.35, A 2.31, F 1.45, I 2.08, T 2.39, H 2.28, E 2.5, D 2.66, K 2.6, Q 2.19, W 2.09, P 2.22, C 2.16, M 2.04
H21: E 2.51, W 1.69, I 1.85, A 2.38, R 2.26, C 2.69, N 2.66, D 2.58, V 1.9, K 2.7, M 2.21, S 2.23, Q 2.44, G 2.37, F 1.64, Y 1.85, T 2.02, L 1.93, P 1.95
G22: D 2.29, H 1.99, W 2.38, R 2.13, L 2.23, K 2, V 1.89, S 1.93, C 2.17, I 1.34, Q 2.1, A 2.49, M 1.96, N 1.99, F 1.57, Y 1.6, T 2.1, E 2.59, P 2.05
L23: H 2.46, A 2.51, K 2.27, E 2.75, C 1.99, W 1.86, I 1.92, P 2.17, N 2.37, M 2.13, Y 2.07, R 2.47, Q 2.38, S 2.24, F 2.02, G 2.49, D 2.84, V 2.39, T 2.26
A18: F 2.24, T 2.09, Q 2.47, Y 2.37, P 1.94, G 2.06, L 1.56, W 1.88, C 1.83, I 1.76, E 2.53, H 2.25, D 2.69, R 2, V 2.33, M 2.11, K 1.94, S 2.21, N 2.44
H20: G 2.16, E 2.44, N 2.2, F 2.3, D 2.36, P 2.5, I 2.13, Y 2.16, W 2.46, M 1.79, V 2.34, T 2.25, K 2.41, Q 2.46, L 1.6, R 2.25, A 2.37, C 2.25, S 2.25

Variants of: B2
Assay: as above
Conditions: c terminus: a fixed tail appended

Protein stability index of substitutions, site by site:
K20: Q 3.36, H 1.46, M 2.3, E 1.94, D 2.29, L 3.03, N 2.58, G 1.99, Y 3.23, R 2.76
F10: S 1.66, V 1.05, R 1.87, I 2.97, A 2.17, L 1.55, C 2.71, W 2, E 1.24
N2: P 1.65, H 2.37, Y 1.77, T 2.76, W 3.67, D 2.91, A 2.02, K 2.28, I 3.16, L 3.82
N17: P 2.71, Q 2.33, V 1.43, E 2.35, S 2.02, G 1.27, F 2.83, M 1.58, I 1.5, D 2.28
L1: Q 2.31, D 1.31, V 2.18, S 1.84, I 2.2
R15: Q 1.33, S 2.95, V 2.01, A 3.26, N 2.43
M13: G 2.13, I 2.35, F 1.97, Y 2.83, Q 1.15, L 1.62, V 2.6, S 2.59
H16: D 3.61, E 2.52, L 1.96, K 1.22, C 3.19, N 2.2, M 4.22, P 2.19
P23: C 1.88, N 2.09, R 1.69, E 2.21
P11: Q 2.73, V 2.17, C 2.3, S 2, I 2.19
Q4: H 2.67, E 2.25, F 2.52, C 1.86, L 3.1, V 3.42, N 2.22, Y 3.01, D 1.66, A 1.44
T12: G 1.47, F 2.79, A 2.56, S 2.65, Q 1.99, L 2.08, K 1.92, Y 2.5, I 2.5, V 2.29, D 1.98, C 2.74, E 2.42
L24: W 2.03, V 1.5, S 1.15, C 2.52, K 1.79, R 1.51
E6: W 2.57, P 2.11, Y 2.06, K 2.21, V 3.6, G 1.77, L 2.27, F 3.4, N 1.19
Y18: F 2.72, T 2.27, V 1.51, H 1.6, A 2.95, R 1.64, Q 2.17, M 2.18, D 1.44, I 2.23, N 1.81
V21: P 2.39, F 2.85, H 1.92, Q 1.46, A 1.32, W 2.14, L 2.24
H19: K 2.3, M 3.8, R 1.88, E 2.25, F 1.81, S 2.35, G 3.11, V 2.8, N 2.27, P 3.38
H8: S 2.12, D 2.14, P 2.11, R 1.74, C 2.41, V 1.5
L9: T 1.42, I 2.01, P 1.5, G 2.83, V 2.37, Q 1.34, S 2.71
I5: C 2.33, F 2.87, V 2.73, R 2.27, W 1.43, Y 2.57, M 1.63
P14: I 2.08, Y 3.17, D 2.52, G 2.43, V 2.38, N 3.36, S 2.71, F 2.39, H 1.9, A 2.64
F3: Y 1.37, E 2.65, H 1.83, P 1.95, M 2.31, G 2.42, C 2.22, N 2.52, R 1.96
H7: G 1.55, K 2.75, L 3.47, T 2.82, S 1.81, P 2.19, R 1.65, A 2.31, W 3.85
A22: M 3.28, I 3.37, E 1.85, Y 2.21, R 1.99, C 1.65, V 2.82, G 1.05, Q 2.06
